Results on three molecules are retold here after publication PMC5648754, “CryoEM structure of Saccharomyces cerevisiae U1 snRNP offers insight into alternative splicing” (Nature Communications, 2017).

Series [1] concerns the molecule itself. The series can be described thus: negative-stain EM; purified Flag-PrpF39; reference-free 2D class averages and preliminary 3D model compared with the Prp42/Prp39 heterodimer.
For the next series, the target named is T1, yeast Prp42 (S. cerevisiae, UniProt Q03776 1-544).
T1 construct: Prp42 of S. cerevisiae, 544 residues; residues 2-540 modelled; source: endogenous, S. cerevisiae; co-purified in U1 snRNP through the TAP tag on U1A
T1 sequence (looked up): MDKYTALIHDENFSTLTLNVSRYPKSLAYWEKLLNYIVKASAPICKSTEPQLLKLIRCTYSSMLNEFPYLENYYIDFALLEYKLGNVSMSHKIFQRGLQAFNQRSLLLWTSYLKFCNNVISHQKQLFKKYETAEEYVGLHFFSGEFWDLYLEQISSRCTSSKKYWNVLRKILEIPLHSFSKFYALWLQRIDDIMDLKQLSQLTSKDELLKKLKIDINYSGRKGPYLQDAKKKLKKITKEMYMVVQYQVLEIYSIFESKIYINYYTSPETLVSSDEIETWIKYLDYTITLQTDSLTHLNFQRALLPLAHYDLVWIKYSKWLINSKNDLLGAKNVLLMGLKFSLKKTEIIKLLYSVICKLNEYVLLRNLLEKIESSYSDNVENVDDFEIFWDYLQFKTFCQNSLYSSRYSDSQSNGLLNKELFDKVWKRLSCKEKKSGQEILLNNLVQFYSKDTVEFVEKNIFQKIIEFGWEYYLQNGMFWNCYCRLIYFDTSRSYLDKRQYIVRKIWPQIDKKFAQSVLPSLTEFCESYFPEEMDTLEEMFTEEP
Kind of series: cryo-EM structure; natively purified yeast U1 snRNP, 3.6 Å overall resolution. Particulars: both partners purified.

The target of another series is T2, yeast U1C (S. cerevisiae, UniProt Q05900 1-231).
T2 construct: U1C of S. cerevisiae U1 snRNP, 231 residues; NTD residues 1-48; residues 3-47 and 48-195 modelled; also called Yhc1; source: endogenous, S. cerevisiae; co-purified in U1 snRNP through the TAP tag on U1A
T2 sequence (looked up): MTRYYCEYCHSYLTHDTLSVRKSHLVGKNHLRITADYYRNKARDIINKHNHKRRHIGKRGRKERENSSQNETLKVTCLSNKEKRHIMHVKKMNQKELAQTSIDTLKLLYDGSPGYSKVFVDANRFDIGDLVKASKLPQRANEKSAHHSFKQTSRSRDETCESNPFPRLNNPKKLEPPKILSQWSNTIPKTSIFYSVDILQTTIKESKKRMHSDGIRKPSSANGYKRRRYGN
The series is described as above. Particulars: both partners purified.

The next series deals with T3, yeast Prp40 (S. cerevisiae, UniProt P33203 1-583).
T3 construct: Prp40 of S. cerevisiae U1 snRNP; not modelled in the structure; source: endogenous, S. cerevisiae; co-purified in U1 snRNP through the TAP tag on U1A
T3 sequence (looked up): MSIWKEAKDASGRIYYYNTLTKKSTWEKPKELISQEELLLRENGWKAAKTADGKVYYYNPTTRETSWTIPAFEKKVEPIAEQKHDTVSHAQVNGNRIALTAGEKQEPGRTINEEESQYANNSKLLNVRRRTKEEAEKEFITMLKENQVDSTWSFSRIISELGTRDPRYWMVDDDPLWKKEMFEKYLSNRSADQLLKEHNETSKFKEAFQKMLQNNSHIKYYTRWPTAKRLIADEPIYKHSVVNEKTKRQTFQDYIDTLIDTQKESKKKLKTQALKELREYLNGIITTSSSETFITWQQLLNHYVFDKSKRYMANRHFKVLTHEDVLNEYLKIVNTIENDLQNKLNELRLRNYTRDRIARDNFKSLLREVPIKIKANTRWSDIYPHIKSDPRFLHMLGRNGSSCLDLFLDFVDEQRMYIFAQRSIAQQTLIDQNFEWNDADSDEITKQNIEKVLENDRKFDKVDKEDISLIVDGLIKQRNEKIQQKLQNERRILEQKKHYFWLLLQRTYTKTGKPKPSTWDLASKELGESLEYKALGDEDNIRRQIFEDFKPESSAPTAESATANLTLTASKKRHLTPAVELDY
The series can be described thus: cross-linking; purified yeast U1 snRNP cross-linked with 100 uM BS3, 30 min, room temperature; trypsin digest, mass spectrometry. The note with it: both partners purified.

A further series addresses T4, yeast Snu56 (S. cerevisiae, UniProt Q03782 1-492).
T4 construct: Snu56 of S. cerevisiae, 492 residues; N-terminal domain 47-254 and long helix 255-303 modelled; source: endogenous, S. cerevisiae; co-purified in U1 snRNP through the TAP tag on U1A
T4 sequence (looked up): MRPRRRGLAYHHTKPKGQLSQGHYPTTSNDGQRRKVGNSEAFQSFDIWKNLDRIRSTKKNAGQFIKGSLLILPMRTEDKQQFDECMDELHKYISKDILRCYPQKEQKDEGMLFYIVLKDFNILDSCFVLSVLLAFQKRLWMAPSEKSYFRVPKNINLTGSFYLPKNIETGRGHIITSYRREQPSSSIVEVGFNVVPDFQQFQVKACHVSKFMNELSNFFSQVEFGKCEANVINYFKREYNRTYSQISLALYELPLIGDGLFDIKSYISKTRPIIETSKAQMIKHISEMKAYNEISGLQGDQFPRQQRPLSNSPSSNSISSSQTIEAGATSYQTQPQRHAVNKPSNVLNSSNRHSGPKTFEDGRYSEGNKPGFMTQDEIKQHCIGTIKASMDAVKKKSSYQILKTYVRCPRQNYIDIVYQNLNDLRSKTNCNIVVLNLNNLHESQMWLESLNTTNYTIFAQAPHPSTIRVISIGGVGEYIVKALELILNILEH
The series can be described thus: cryo-EM structure; natively purified yeast U1 snRNP, 3.6 Å overall resolution. The note with it: both partners purified.

B1: human PrpF39, Flag-tagged (second copy HA-tagged in the co-IP) (natural protein, UniProt Q86UA1 1-669, looked up)
chain: MQNSHMDEYRNSSNGSTGNSSEVVVEHPTDFSTEIMNVTEMEQSPDDSPNVNASTEETEMASAVDLPVTLTETEANFPPEYEKFWKTVENNPQDFTGWVYLLQYVEQENHLMAARKAFDRFFIHYPYCYGYWKKYADLEKRHDNIKPSDEVYRRGLQAIPLSVDLWIHYINFLKETLDPGDPETNNTIRGTFEHAVLAAGTDFRSDRLWEMYINWENEQGNLREVTAIYDRILGIPTQLYSHHFQRFKEHVQNNLPRDLLTGEQFIQLRRELASVNGHSGDDGPPGDDLPSGIEDITDPAKLITEIENMRHRIIEIHQEMFNYNEHEVSKRWTFEEGIKRPYFHVKPLEKAQLKNWKEYLEFEIENGTHERVVVLFERCVISCALYEEFWIKYAKYMENHSIEGVRHVFSRACTIHLPKKPMVHMLWAAFEEQQGNINEARNILKTFEECVLGLAMVRLRRVSLERRHGNLEEAEHLLQDAIKNAKSNNESSFYAVKLARHLFKIQKNLPKSRKVLLEAIERDKENTKLYLNLLEMEYSGDLKQNEENILNCFDKAVHGSLPIKMRITFSQRKVEFLEDFGSDVNKLLNAYDEHQTLLKEQDSLKRKAENGSEEPEEKKAHTEDTTSSSTQMIDGDLQANQAVYNYSAWYQYNYQNPWNYGQYYPPPPT
notes: human PrpF39; In the co-IP two differently tagged copies (Flag-PrpF39 and HA-PrpF39) were co-transfected; The purified protein carries the Flag tag; also called Flag-PrpF39; HA-PrpF39; source: HEK293FT, transfected (pEF-Bos-Flag-PrpF39 and/or pEF-Bos-HA-PrpF39), in lysate; also purified (anti-Flag M2 agarose, 3x Flag peptide elution, Superose 6 gel filtration)
Take B1: in series [1], the “stoichiometry N” value is 2.

B2: yeast SmD3 (natural protein, S. cerevisiae, UniProt P43321 1-101, looked up)
chain: MTMNGIPVKLLNEAQGHIVSLELTTGATYRGKLVESEDSMNVQLRDVIATEPQGAVTHMDQIFVRGSQIKFIVVPDLLKNAPLFKKNSSRPMPPIRGPKRR
notes: SmD3 of S. cerevisiae, member of the Sm ring of U1 snRNP; source: endogenous, S. cerevisiae; co-purified in U1 snRNP through the TAP tag on U1A
Take B2: the binding result in the series with yeast Prp42 and with yeast U1C was “binds” in each case.

B3: yeast Luc7 (natural protein, S. cerevisiae, UniProt Q07508 1-261, looked up)
chain: MSTMSTPAAEQRKLVEQLMGRDFSFRHNRYSHQKRDLGLHDPKICKSYLVGECPYDLFQGTKQSLGKCPQMHLTKHKIQYEREVKQGKTFPEFEREYLAILSRFVNECNGQISVALQNLKHTAEERMKIQQVTEELDVLDVRIGLMGQEIDSLIRADEVSMGMLQSVKLQELISKRKEVAKRVRNITENVGQSAQQKLQVCEVCGAYLSRLDTDRRLADHFLGKIHLGYVKMREDYDRLMKNNRTTNASKTATTLPGRRFV
notes: Luc7 of S. cerevisiae, 261 residues; first (pseudo) Zn-finger modelled; source: endogenous, S. cerevisiae; co-purified in U1 snRNP through the TAP tag on U1A
In the case of B3, the binding result with yeast Prp40, in the series with yeast Prp42 and with yeast Snu56 was “binds” each time.

What is called stoichiometry N is the number of molecules, sites or subunits per partner or assembly.
